In article PMC10602909:

System: ZNF506 ZF1-8 (C-terminal zinc finger array) (human)
Experiment: ITC
Details: ITC (MicroCal PEAQ-ITC): 100 mM Tris pH 8, 500 mM NaCl, 25 uM ZnCl2, 10 mM reduced glutathione; protein 20 uM, DNA 200 nM as printed; temperature not stated

Substance: PBS-Pro 28 bp dsDNA probe
- Kd: 840 nM
